These results are taken from patent US20250011388A1 (MONASH UNIVERSITY, published 2025).

To fix the notation:
B1: human CD80 (hCD80) expressed on CHO cells (ligand, UniProt P33681 35-288, looked up)
chain: VIHVTKEVKEVATLSCGHNVSVEELAQTRIYWQKEKKMVLTMMSGDMNIWPEYKNRTIFDITNNLSIVILALRPSDEGTYECVVLKYEKDAFKREHLAEVTLSVKADFPTPSISDFEIPTSNIRRIICSTSGGFPEPHLSWLENGEELNAINTTVSQDPETELYAVSSKLDFNMTTNHSFMCLIKYGHLRVNQTFNWNTTKQEHFPDNLLPSWAITLISVNGIFVICCLTYCFAPRCRERRRNERLRRESVRPV
notes: whole, on cells; In most assays co-expressed with human PDL1 on the same CHO cell (cis-CD80:PDL1 clones, e.g. clone 12); also called B7-1; cis-CD80:PDL1 cells
B2: MonoCTLA4-Ig (Fc fusion)
chain: MHVAQPAVVLASSRGIASFVCEYASPGKATEVRVTVLRQADSQVTEVCAATYMMGNELTFLDDSICTGTSSGNQVNLTIQGLRAMDTGLYICKVELMYPPPYYLGIGNGTQIYVIAKEKKPSYNRGLCENAPNRARMQEPKSSDKTHTSPPSPAPELLGGSSVFLFPPKPKDTLMISRTPEVTCVVVDVSHEDPEVKFNWYVDGVEVHNAKTKPREEQYNSTYRVVSVLTVLHQDWLNGKEYKCKVSNKALPAPIEKTISKAKGQPREPQVYTLPPSRDELTKNQVNLTCLVKGFYPSDIAVEWESNGQPENNYKTTPPVLDSDGSFFLNSTLTVDKSRWQQGNVFSCSVMHEALHNHYTQKSLSLSPGK
notes: not shown: C-terminal FLAG tag

The target of assay [1] is T1, human PDL1 (hPDL1) expressed on CHO cells (human, UniProt Q9NZQ7 19-290).
T1 construct: whole, on cells; Expressed alone (parental PDL1 clone) or with CD80 (cis-CD80:PDL1 clones)
Nature of the assay: flow cytometry, CHO cells co-expressing human CD80 and PDL1 (cis interaction). A general note: In flow cytometry, cells or beads pass a laser one at a time.

Assay [2] deals with B1. The assay can be described thus: flow cytometry, anti-hIgG1 staining, cis-CD80:PDL1 CHO cells.
Protocol: After washing to remove excess fusion protein and antibody, cell pellets were resuspended in 100 μL of FACS buffer (PBS with 10% FCS). Flow cytometry was performed on viable cells (based on SSC/FSC) using a BD LSRII or LSRFortessa (BD Biosciences), and cell sorting was performed using a BD Influx (BD Biosciences) with a 100 μm nozzle. […] All antibodies were used at a final dilution of 1:200 from stock.

T1 sequence (Q9NZQ7 19-290): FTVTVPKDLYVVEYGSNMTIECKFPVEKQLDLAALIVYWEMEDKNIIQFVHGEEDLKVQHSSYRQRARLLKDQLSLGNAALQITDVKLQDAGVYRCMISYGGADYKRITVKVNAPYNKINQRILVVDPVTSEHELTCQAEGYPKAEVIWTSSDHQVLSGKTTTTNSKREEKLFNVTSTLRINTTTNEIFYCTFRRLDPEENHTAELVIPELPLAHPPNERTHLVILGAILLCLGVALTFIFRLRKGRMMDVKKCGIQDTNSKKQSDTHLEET

On to B1, for which, in assay [1], the binding result is recorded as “binds”.

B2: in assay [2], the binding result is listed as “binds”.
